Data published in the supplement of paper PMC12855868.

B1: library; numbered along this chain (parent)
chain: MAAAGGARLLRAASAVLGGPAGRWLHHAGSRAGSSGLLRNRGPGGSAEASRSLSVSARARSSSEDKITVHFINRDGETLTTKGKVGDSLLDVVVENNLDIDGFGACEGTLACSTCHLIFEDHIYEKLDAITDEENDMLDLAYGLTDRSRLGCQICLTKSMDNMTVRVPETVADARQSIDVGKTS

Variants of: B1
Experiment: scaled log2 fold change in cell abundance, elesclomol vs control (0 = silent mean, 1 = nonsense mean) (scaled log2 ratio); higher = higher viability under elesclomol (loss of FDX1 cuproptosis function)
Settings: glucose 10 mM
[1] = with ABC1 FDX1 KO, elesclomol 5 nM, 14 days
[2] = with HEK293T FDX1 KO, elesclomol 40 nM, 11 days
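Also: variant abundance is its share of total variant reads in each endpoint sample, from next-generation sequencing of the integrated ORF PCR-amplified out of genomic DNA.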

V93R
scaled log2 fold change [1]: 0.275 | scaled log2 fold change [2]: 0.16

E95G
scaled log2 fold change [1]: -0.0448 | scaled log2 fold change [2]: 0.982

E95C
scaled log2 fold change [1]: -0.0222

L138T
scaled log2 fold change [1]: -0.0362 | scaled log2 fold change [2]: 0.287

L138A
scaled log2 fold change [1]: 0.519 | scaled log2 fold change [2]: -0.22

A2Y
scaled log2 fold change [1]: -0.115 | scaled log2 fold change [2]: -0.115

G19H
scaled log2 fold change [1]: 0.674

V180F
scaled log2 fold change [1]: 0.0635 | scaled log2 fold change [2]: 0.0689

S177W
scaled log2 fold change [1]: 0.0273 | scaled log2 fold change [2]: 0.264

S177L
scaled log2 fold change [1]: -0.34 | scaled log2 fold change [2]: -0.529

M160E
scaled log2 fold change [1]: 0.143 | scaled log2 fold change [2]: -0.299

F119D
scaled log2 fold change [1]: 1.06 | scaled log2 fold change [2]: 1.02

F119M
scaled log2 fold change [1]: 0.178 | scaled log2 fold change [2]: 0.132

R175F
scaled log2 fold change [1]: 0.208 | scaled log2 fold change [2]: 0.0272

C106P
scaled log2 fold change [1]: 1.07 | scaled log2 fold change [2]: 0.899

C106Y
scaled log2 fold change [1]: 1.17 | scaled log2 fold change [2]: 1.2

K158P
scaled log2 fold change [1]: 0.0465 | scaled log2 fold change [2]: 0.515

L156I
scaled log2 fold change [1]: -0.0958 | scaled log2 fold change [2]: -0.948

L38C
scaled log2 fold change [1]: -0.631 | scaled log2 fold change [2]: 0.0841

T68M
scaled log2 fold change [1]: -0.209 | scaled log2 fold change [2]: 0.641

T68G
scaled log2 fold change [1]: -0.0825 | scaled log2 fold change [2]: 0.801

T68H
scaled log2 fold change [1]: 0.349 | scaled log2 fold change [2]: -0.699

S52V
scaled log2 fold change [1]: -0.785 | scaled log2 fold change [2]: -0.177

S54K
scaled log2 fold change [1]: -0.175 | scaled log2 fold change [2]: -1

Q176C
scaled log2 fold change [1]: 0.128 | scaled log2 fold change [2]: -0.158

Q176T
scaled log2 fold change [1]: -0.0483 | scaled log2 fold change [2]: -0.279

G104N
scaled log2 fold change [1]: 0.899 | scaled log2 fold change [2]: 1.47

G104T
scaled log2 fold change [1]: 0.997 | scaled log2 fold change [2]: 1.59

D128F
scaled log2 fold change [1]: -0.376 | scaled log2 fold change [2]: 0.338

D128V
scaled log2 fold change [1]: 0.419 | scaled log2 fold change [2]: -0.465

D128L
scaled log2 fold change [1]: 0.397 | scaled log2 fold change [2]: -0.761

V165F
scaled log2 fold change [1]: 0.53 | scaled log2 fold change [2]: 0.286

V165P
scaled log2 fold change [1]: 0.71 | scaled log2 fold change [2]: 0.4

A59T
scaled log2 fold change [1]: 0.332 | scaled log2 fold change [2]: -0.0311

A59K
scaled log2 fold change [1]: -0.0687 | scaled log2 fold change [2]: -0.733

Y124D
scaled log2 fold change [1]: 0.088 | scaled log2 fold change [2]: 0.872

Y124Q
scaled log2 fold change [1]: 0.286 | scaled log2 fold change [2]: -0.703

R31V
scaled log2 fold change [1]: 0.267

R31I
scaled log2 fold change [1]: 0.762

R31A
scaled log2 fold change [1]: 0.317

D179Y
scaled log2 fold change [1]: 0.0967 | scaled log2 fold change [2]: -0.339

D179A
scaled log2 fold change [1]: -0.393 | scaled log2 fold change [2]: -0.278

V167Y
scaled log2 fold change [1]: -0.0283 | scaled log2 fold change [2]: 0.556

E48Y
scaled log2 fold change [1]: 0.494 | scaled log2 fold change [2]: 1.46

A111G
scaled log2 fold change [1]: -0.0345 | scaled log2 fold change [2]: 0.231

A111W
scaled log2 fold change [1]: 0.0852 | scaled log2 fold change [2]: 0.773

L127W
scaled log2 fold change [1]: 0.322 | scaled log2 fold change [2]: 0.0443

L10K
scaled log2 fold change [1]: -0.11 | scaled log2 fold change [2]: -0.14

L10I
scaled log2 fold change [1]: -0.165 | scaled log2 fold change [2]: 0.0157

C155T
scaled log2 fold change [1]: -0.251 | scaled log2 fold change [2]: -0.435

A12E
scaled log2 fold change [1]: 0.118 | scaled log2 fold change [2]: 0.751

A12M
scaled log2 fold change [1]: -0.178 | scaled log2 fold change [2]: -0.222

E64S
scaled log2 fold change [1]: -0.691 | scaled log2 fold change [2]: -0.469

E64T
scaled log2 fold change [1]: 0.135 | scaled log2 fold change [2]: -0.296

E64W
scaled log2 fold change [1]: -0.394

E64L
scaled log2 fold change [1]: -0.17 | scaled log2 fold change [2]: -0.952

N162G
scaled log2 fold change [1]: -0.601

E169K
scaled log2 fold change [1]: -0.0829 | scaled log2 fold change [2]: 1.04

E169R
scaled log2 fold change [1]: 0.0391 | scaled log2 fold change [2]: 0.411

T183Y
scaled log2 fold change [1]: -0.296 | scaled log2 fold change [2]: 0.0186
